Source: patent publication US20110118172A1 (Takeda / Millennium, published 2011)
Non-standard residues stand in square brackets, D forms with d. No end group written: not given here. *: point of attachment. benzylureido = benzylcarbamoyl on the N-terminal amino group, O=C(NCc1ccccc1)*; amidino = amidino group on the N-terminal amino group, N=C(N)*; Pro(trans-4-F) = O=C(O)[C@@H]1C[C@@H](F)CN1; Arg(Me) = CNC(=N)NCCC[C@H](N)C(=O)O; Dap(CONH2) = NC(=O)NC[C@H](N)C(=O)O; Hyp = O=C(O)[C@@H]1C[C@@H](O)CN1; Cha = N[C@@H](CC1CCCCC1)C(=O)O; dCha = N[C@H](CC1CCCCC1)C(=O)O; Decanoyl = CCCCCCCCCC(=O)*; Carbamoyl = NC(=O)*; azaGly = NNC(=O)O; Ms = CS(=O)(=O)*

Molecular target: metastin receptor (OT7T175) stably expressed on CHO cells
Experiment: cell-based or functional assay

| Specific Activity: EC50 of the test compound based on EC50 of Metastin (45-54); agonist activity by change in intracellular calcium ion level (Fluo-4 NW, FLIPR) in receptor-expressing CHO cells [ratio] | Binder |
| --- | --- |
| 0.3 | Ac-[dY][Hyp][Dap(CONH2)]T[Cha]GL[Arg(Me)]W-NH2 (also: Gly7-Leu8 -CONH- replaced by (E)-CMe=CH-) [Compound No. 986: des(1)-Ac-[D-Tyr2,Hyp3,Alb4,Thr5,Cha6,Gly7ψ((E)CMe=CH)Leu8,Arg(Me)9,Trp10]MS10] |
| 0.3 | Ac-[dY][Hyp]NT[Cha][azaGly]L[Arg(Me)]W-NH2 [Compound No. 969: des(1)-Ac-[D-Tyr2,Hyp3,Thr5,Cha6,AzaGly7,Arg(Me)9,Trp10]MS10] |
| 4.1 | Decanoyl-[dY][Hyp]NTF[azaGly]L[Arg(Me)]W-NH2 (SMILES CCCCCCCCCC(=O)N[C@H](Cc1ccc(O)cc1)C(=O)N1C[C@H](O)C[C@H]1C(=O)N[C@@H](CC(N)=O)C(=O)N[C@H](C(=O)N[C@@H](Cc1ccccc1)C(=O)NNC(=O)N[C@@H](CC(C)C)C(=O)N[C@@H](CCCNC(=N)NC)C(=O)N[C@@H](Cc1c[nH]c2ccccc12)C(N)=O)[C@@H](C)O) [Compound No. 965: des(1)-decanoyl[D-Tyr2,Hyp3,Thr5,AzaGly7,Arg(Me)9,Trp10]MS10] |
| 1 | Ac-[dY][Hyp][Dap(CONH2)]T[Cha]G[dL][Arg(Me)]W-NH2 (also: Gly7-D-Leu8 -CONH- replaced by (E)-CH=CH-) [Compound No. 976: des(1)-Ac-[D-Tyr2,Hyp3,Alb4,Thr5,Cha6,Gly7ψ((E)CH=CH)D-Leu8,Arg(Me)9,Trp10]MS10] |
| 2.3 | Ac-[dY][Hyp][Dap(CONH2)]T[dCha]GL[Arg(Me)]W-NH2 (also: Gly7-Leu8 -CONH- replaced by (E)-CH=CH-) [Compound No. 975: des(1)-Ac-[D-Tyr2,Hyp3,Alb4,Thr5,D-Cha6,Gly7ψ((E)CH=CH)Leu8,Arg(Me)9,Trp10]MS10] |
| 1.7 | [Hyp]NTF[azaGly]L[Arg(Me)]W-NH2 (N-terminus assumed; SMILES CNC(=N)NCCC[C@H](NC(=O)[C@H](CC(C)C)NC(=O)NNC(=O)[C@H](Cc1ccccc1)NC(=O)[C@@H](NC(=O)[C@H](CC(N)=O)NC(=O)[C@@H]1C[C@@H](O)CN1)[C@@H](C)O)C(=O)N[C@@H](Cc1c[nH]c2ccccc12)C(N)=O) [Compound No. 977: des(1-2)-[Hyp3,Thr5,AzaGly7,Arg(Me)9,Trp10]MS10] |
| 0.4 | amidino-[dY][Hyp]NTF[azaGly]L[Arg(Me)]W-NH2 (SMILES CNC(=N)NCCC[C@H](NC(=O)[C@H](CC(C)C)NC(=O)NNC(=O)[C@H](Cc1ccccc1)NC(=O)[C@@H](NC(=O)[C@H](CC(N)=O)NC(=O)[C@@H]1C[C@@H](O)CN1C(=O)[C@@H](Cc1ccc(O)cc1)NC(=N)N)[C@@H](C)O)C(=O)N[C@@H](Cc1c[nH]c2ccccc12)C(N)=O) [Compound No. 971: des(1)-Amidino-[D-Tyr2,Hyp3,Thr5,AzaGly7,Arg(Me)9,Trp10]MS10] |
| 1.9 | benzylureido-[dY][Hyp]NTF[azaGly]L[Arg(Me)]W-NH2 (SMILES CNC(=N)NCCC[C@H](NC(=O)[C@H](CC(C)C)NC(=O)NNC(=O)[C@H](Cc1ccccc1)NC(=O)[C@@H](NC(=O)[C@H](CC(N)=O)NC(=O)[C@@H]1C[C@@H](O)CN1C(=O)[C@@H](Cc1ccc(O)cc1)NC(=O)NCc1ccccc1)[C@@H](C)O)C(=O)N[C@@H](Cc1c[nH]c2ccccc12)C(N)=O) [Compound No. 966: des(1)-Benzylureido-[D-Tyr2,Hyp3,Thr5,AzaGly7,Arg(Me)9,Trp10]MS10] |
| 0.6 | Ac-[dY][Pro(trans-4-F)]NT[Cha][azaGly]L[Arg(Me)]W-NH2 [Compound No. 970: des(1)-Ac-[D-Tyr2,Pro(4F)3,Thr5,Cha6,AzaGly7,Arg(Me)9,Trp10]MS10] |
| 0.9 | Ms-[dY][Hyp]NTF[azaGly]L[Arg(Me)]W-NH2 (SMILES CNC(=N)NCCC[C@H](NC(=O)[C@H](CC(C)C)NC(=O)NNC(=O)[C@H](Cc1ccccc1)NC(=O)[C@@H](NC(=O)[C@H](CC(N)=O)NC(=O)[C@@H]1C[C@@H](O)CN1C(=O)[C@@H](Cc1ccc(O)cc1)NS(C)(=O)=O)[C@@H](C)O)C(=O)N[C@@H](Cc1c[nH]c2ccccc12)C(N)=O) [Compound No. 963: des(1)-Ms-[D-Tyr2,Hyp3,Thr5,AzaGly7,Arg(Me)9,Trp10]MS10] |
| 0.6 | Carbamoyl-[dY][Hyp]NTF[azaGly]L[Arg(Me)]W-NH2 (SMILES CNC(=N)NCCC[C@H](NC(=O)[C@H](CC(C)C)NC(=O)NNC(=O)[C@H](Cc1ccccc1)NC(=O)[C@@H](NC(=O)[C@H](CC(N)=O)NC(=O)[C@@H]1C[C@@H](O)CN1C(=O)[C@@H](Cc1ccc(O)cc1)NC(N)=O)[C@@H](C)O)C(=O)N[C@@H](Cc1c[nH]c2ccccc12)C(N)=O) [Compound No. 967: des(1)-Ureido-[D-Tyr2,Hyp3,Thr5,AzaGly7,Arg(Me)9,Trp10]MS10] |
